Test results taken from publication PMC10897456, “B. subtilis MutS2 splits stalled ribosomes into subunits without mRNA cleavage” (The EMBO Journal, 2023).

Experiments:
Experiment in all cases: cryo-EM structure; reconstituted complex: His-MutS2 WT in tenfold excess over purified B. subtilis disomes, 50 mM HEPES/KOH pH 7.5, 75 mM KOAc, 5 mM Mg(OAc)2, 45 mM NH4Cl, 4 mM MgCl2, 1 mM MnCl2, 1 mM AMP-PNP, 30 °C for 1 h; 3.8 Å
Details in all cases: both partners purified
ribosomal protein uS7 = ribosomal protein uS7 (B. subtilis (endogenous in B. subtilis …, UniProt P21469 1-156))
ribosomal protein uS10 = ribosomal protein uS10 (B. subtilis (endogenous in B. subtilis …, UniProt P21471 1-102))
ribosomal protein uS11 = ribosomal protein uS11 (B. subtilis (endogenous in B. subtilis …, UniProt P04969 1-131))

binding result (ribosomal protein uS7): binds
binding result (ribosomal protein uS10): binds
binding result (ribosomal protein uS11): binds
B1: His-MutS2 WT (recombinant B. subtilis MutS2) (natural protein)
chain: MQQKVLSALEFHKVKEQVIGHAASSLGKEMLLELKPSASIDEIKKQLDEVDEASDIIRLRGQAPFGGLVDIRGALRRAEIGSVLSPSEFTEISGLLYAVKQMKHFITQMAEDGVDIPLIHQHAEQLITLSDLERDINSCIDDHGEVLDHASETLRGIRTQLRTLESRVRDRLESMLRSSSASKMLSDTIVTIRNDRFVIPVKQEYRSSYGGIVHDTSSSGATLFIEPQAIVDMNNSLQQAKVKEKQEIERILRVLTEKTAEYTEELFLDLQVLQTLDFIFAKARYAKAVKATKPIMNDTGFIRLKKARHPLLPPDQVVANDIELGRDFSTIVITGPNTGGKTVTLKTLGLLTLMAQSGLHIPADEGSEAAVFEHVFADIGDEQSIEQSLSTFSSHMVNIVGILEQVNENSLVLFDELGAGTDPQEGAALAMSILDDVHRTNARVLATTHYPELKAYGYNREGVMNASVEFDIETLSPTYKLLIGVPGRSNAFEISKRLGLPDHIIGQAKSEMTAEHNEVDTMIASLEQSKKRAEEELSETESIRKEAEKLHKELQQQIIELNSKKDKMLEEAEQQAAEKVKAAMKEAEDIIHELRTIKEEHKSFKDHELINAKKRLEGAMPAFEKSKKPEKPKTQKRDFKPGDEVKVLTFGQKGTLLEKTGGNEWNVQIGILKMKVKEKDLEFIKSAPEPKKEKMITAVKGKDYHVSLELDLRGERYENALSRVEKYLDDAVLAGYPRVSIIHGKGTGALRKGVQDLLKNHRSVKSSRFGEAGEGGSGVTVVELK
notes: MutS2 of B. subtilis (87 kD); core/lever, clamp, P-loop ABC ATPase, KOW and SMR domains; SMR domain printed as residues 710-785; SEC: oligomer, consistent with a dimer or tetramer; the text calls it a homodimer on the disome; Only the KOW and SMR domains are resolved in the structure (AlphaFold2 models fitted as rigid bodies); also called RqcU; source: E. coli BL21(DE3), pET24d(+), purified …
